Laboratory results taken from patent US12410262B2, “Peptide conjugates of cytotoxins as therapeutics” (Cybrexa 2, Inc., priority 2019, dated 2025).
pIC50: −log10 of the molar value. Read-outs that look alike come from different tables or passages of the source.

Key:
HCT116 = assay: cells; assay type: cell-based, human
Procedure: Cells were plated in 96 well black walled-clear bottom plates (Griener), DLD-1 WT cells at 2500 cells per well, FaDu, and HeLa cells at 5000 cells per well, and HCT116 at 3000 cells per well, in growth media containing 10% FBS. Cells were allowed to adhere at room temperature for 60 minutes before returning to a 37 C, 5% CO2 incubator. After 24 hours, media was removed and replaced with fresh growth media containing various drug concentrations. Each drug concentration was added in triplicate. Non-drug treated controls contained growth media only. Cells were returned to the incubator. Ninety-six hours after addition of drug, cells were fixed with 4% paraformaldehyde for 20 minutes and stained with Hoechst at 1 ug/mL. The plates were imaged on a Cytation 5 auto imager (BioTek) and cells were counted using CellProfiler (http://cellprofiler.org). The percent cell growth delay was calculated and data plotted using GraphPad Prism

[1] = Glutathione cleavage study; assay type: in vitro ADME; details: Tris buffer with 10 mM glutathione, Glutathione Challenge (10 mM), 100 μM conjugate, Tris pH 7.5, 37° C.
Procedure: A 20 mM stock of conjugate was prepared in 100% DMSO. The stocks were subsequently diluted in 100 mM Tris, pH 7.5, to yield an intermediate dilution of 500 μM followed by an additional dilution of 1:5 in 100 mM Tris, pH 7.5 to give a final concentration of 100 μM of conjugate. 100 mM glutathione was prepared immediately prior to use in H2O and diluted 1:10 in challenge samples for a final glutathione challenge concentration of 10 mM. Samples were mixed by inversion and incubated at 37° C. for up to 24 hrs. […]
(§1) Samples were thawed and extracted as follows: 8 μL of 25% phosphoric acid followed by 117 μL of 100% acetonitrile/0.1% TFA were added to each sample, mixed and centrifuged at 13000×G for 10 minutes. The supernatant was pipetted into 0.2 mL HPLC vials and placed on a Perkin Elmer Flexar HPLC autosampler. The following table summarizes HPLC conditions:
Data was analyzed by calculating the percentage reduction of compound (area of retention time peak of […] conjugate/area of retention time peak of conjugate at time 0)×100.

Plasma stability studies = assay type: in vitro ADME; details: rat plasma, 100 μM conjugate, 37° C.
Procedure: A 20 mM stock of conjugate was prepared in 100% DMSO. The stocks were subsequently diluted in 100 mM Tris, pH 7.5 to yield an intermediate dilution of 500 μM and then diluted 1:5 directly into rat plasma to yield a final concentration of 100 μM of conjugate. Samples were mixed by inversion and incubated at 37° C. for up to 24 h. 50 μL samples were aliquoted into siliconized microfuge tubes at time 0, 4, and 24 h and immediately frozen at −80° C.
as §1, with “100% Acetonitrile/0.1%” for “100% acetonitrile/0.1%”, “TFA was” for “TFA were”
Data was analyzed by calculating the percentage reduction of compound (area of retention time peak of incubated conjugate/area of retention time peak of conjugate at time 0)×100.

CC[C@@]1(O)C(=O)OCc2c1cc1n(c2=O)Cc2c-1nc1cc(F)c(C)c3c1c2[C@@H](NC(=O)O[C@H](C)[C@@H](C)SSC[C@H](NC(=O)[C@H](Cc1c[nH]c2ccccc12)NC(=O)[C@H](CC(C)C)NC(=O)[C@H](CC(C)C)NC(=O)[C@H](CC(=O)O)NC(=O)[C@H](CC(C)C)NC(=O)[C@H](CC(C)C)NC(=O)[C@H](CC(C)C)NC(=O)[C@@H](NC(=O)[C@H](CC(=O)O)NC(=O)[C@@H](NC(=O)[C@@H]1CCCN1C(=O)[C@H](Cc1ccccc1)NC(=O)[C@H](CC(C)C)NC(=O)[C@H](CC(C)C)NC(=O)[C@H](CC(=O)O)NC(=O)[C@H](CC(C)C)NC(=O)[C@H](Cc1ccc(O)cc1)NC(=O)[C@H](C)NC(=O)[C@H](CCCNC(=N)N)NC(=O)[C@H](Cc1c[nH]c2ccccc12)NC(=O)[C@@H]1CCCN1C(=O)[C@H](CC(N)=O)NC(=O)[C@H](CCC(N)=O)NC(=O)[C@H](CC(=O)O)NC(=O)[C@H](CC(=O)O)NC(=O)[C@H](C)N)[C@@H](C)O)[C@@H](C)O)C(=O)NCC(=O)O)CC3 [Compound 12]
pIC50 (HCT116; HCT-116 cells, 96 h after addition of drug, second table (Compounds 11-29), read-out: HCT-116 (IC50)): 8.59

CC[C@@]1(O)C(=O)OCc2c1cc1n(c2=O)Cc2c-1nc1cc(F)c(C)c3c1c2[C@@H](NC(=O)O[C@@H]1CCCC[C@H]1SSC[C@H](NC(=O)[C@H](Cc1c[nH]c2ccccc12)NC(=O)[C@H](CC(C)C)NC(=O)[C@H](CC(C)C)NC(=O)[C@H](CC(=O)O)NC(=O)[C@H](CC(C)C)NC(=O)[C@H](CC(C)C)NC(=O)[C@H](CC(C)C)NC(=O)[C@@H](NC(=O)[C@H](CC(=O)O)NC(=O)[C@@H](NC(=O)[C@@H]1CCCN1C(=O)[C@H](Cc1ccccc1)NC(=O)[C@H](CC(C)C)NC(=O)[C@H](CC(C)C)NC(=O)[C@H](CC(=O)O)NC(=O)[C@H](CC(C)C)NC(=O)[C@H](Cc1ccc(O)cc1)NC(=O)[C@H](C)NC(=O)[C@H](CCCNC(=N)N)NC(=O)[C@H](Cc1c[nH]c2ccccc12)NC(=O)[C@@H]1CCCN1C(=O)[C@H](CC(N)=O)NC(=O)[C@H](CCC(N)=O)NC(=O)[C@H](CC(=O)O)NC(=O)[C@H](CC(=O)O)NC(=O)[C@H](C)N)[C@@H](C)O)[C@@H](C)O)C(=O)NCC(=O)O)CC3 [Compound 13]
pIC50 (HCT116; 96 h): 7.68

CC[C@@]1(O)C(=O)OCc2c1cc1n(c2=O)Cc2c-1nc1cc(F)c(C)c3c1c2[C@@H](NC(=O)O[C@@H]1CCC[C@H]1SSC[C@H](NC(=O)[C@H](Cc1c[nH]c2ccccc12)NC(=O)[C@H](CC(C)C)NC(=O)[C@H](CC(C)C)NC(=O)[C@H](CC(=O)O)NC(=O)[C@H](CC(C)C)NC(=O)[C@H](CC(C)C)NC(=O)[C@H](CC(C)C)NC(=O)[C@@H](NC(=O)[C@H](CC(=O)O)NC(=O)[C@@H](NC(=O)[C@@H]1CCCN1C(=O)[C@H](Cc1ccccc1)NC(=O)[C@H](CC(C)C)NC(=O)[C@H](CC(C)C)NC(=O)[C@H](CC(=O)O)NC(=O)[C@H](CC(C)C)NC(=O)[C@H](Cc1ccc(O)cc1)NC(=O)[C@H](C)NC(=O)[C@H](CCCNC(=N)N)NC(=O)[C@H](Cc1c[nH]c2ccccc12)NC(=O)[C@@H]1CCCN1C(=O)[C@H](CC(N)=O)NC(=O)[C@H](CCC(N)=O)NC(=O)[C@H](CC(=O)O)NC(=O)[C@H](CC(=O)O)NC(=O)[C@H](C)N)[C@@H](C)O)[C@@H](C)O)C(=O)NCC(=O)O)CC3 [Compound 14]
pIC50 (HCT116; 96 h): 8.33 | remaining at 4 h, 100 µM [1]: 14.9% | remaining at 24 h, 100 µM [1]: 6.5% | remaining at 4 h, 100 µM (Plasma stability studies): 106% | remaining at 24 h, 100 µM (Plasma stability studies): 106%

CC[C@@]1(O)C(=O)OCc2c1cc1n(c2=O)Cc2c-1nc1cc(F)c(C)c3c1c2[C@@H](NC(=O)O[C@H]1CCC[C@@H]1SSC[C@H](NC(=O)[C@H](Cc1c[nH]c2ccccc12)NC(=O)[C@H](CC(C)C)NC(=O)[C@H](CC(C)C)NC(=O)[C@H](CC(=O)O)NC(=O)[C@H](CC(C)C)NC(=O)[C@H](CC(C)C)NC(=O)[C@H](CC(C)C)NC(=O)[C@@H](NC(=O)[C@H](CC(=O)O)NC(=O)[C@@H](NC(=O)[C@@H]1CCCN1C(=O)[C@H](Cc1ccccc1)NC(=O)[C@H](CC(C)C)NC(=O)[C@H](CC(C)C)NC(=O)[C@H](CC(=O)O)NC(=O)[C@H](CC(C)C)NC(=O)[C@H](Cc1ccc(O)cc1)NC(=O)[C@H](C)NC(=O)[C@H](CCCNC(=N)N)NC(=O)[C@H](Cc1c[nH]c2ccccc12)NC(=O)[C@@H]1CCCN1C(=O)[C@H](CC(N)=O)NC(=O)[C@H](CCC(N)=O)NC(=O)[C@H](CC(=O)O)NC(=O)[C@H](CC(=O)O)NC(=O)[C@H](C)N)[C@@H](C)O)[C@@H](C)O)C(=O)NCC(=O)O)CC3 [Compound 15]
pIC50 (HCT116; 96 h): 8.77 | remaining at 4 h, 100 µM [1]: 19.4% | remaining at 24 h, 100 µM [1]: 8.3% | remaining at 4 h, 100 µM (Plasma stability studies): 105% | remaining at 24 h, 100 µM (Plasma stability studies): 103%

CC[C@@]1(O)C(=O)OCc2c1cc1n(c2=O)Cc2c-1nc1cc(F)c(C)c3c1c2[C@@H](NC(=O)O[C@@H]1COC[C@H]1SSC[C@H](NC(=O)[C@H](Cc1c[nH]c2ccccc12)NC(=O)[C@H](CC(C)C)NC(=O)[C@H](CC(C)C)NC(=O)[C@H](CC(=O)O)NC(=O)[C@H](CC(C)C)NC(=O)[C@H](CC(C)C)NC(=O)[C@H](CC(C)C)NC(=O)[C@@H](NC(=O)[C@H](CC(=O)O)NC(=O)[C@@H](NC(=O)[C@@H]1CCCN1C(=O)[C@H](Cc1ccccc1)NC(=O)[C@H](CC(C)C)NC(=O)[C@H](CC(C)C)NC(=O)[C@H](CC(=O)O)NC(=O)[C@H](CC(C)C)NC(=O)[C@H](Cc1ccc(O)cc1)NC(=O)[C@H](C)NC(=O)[C@H](CCCNC(=N)N)NC(=O)[C@H](Cc1c[nH]c2ccccc12)NC(=O)[C@@H]1CCCN1C(=O)[C@H](CC(N)=O)NC(=O)[C@H](CCC(N)=O)NC(=O)[C@H](CC(=O)O)NC(=O)[C@H](CC(=O)O)NC(=O)[C@H](C)N)[C@@H](C)O)[C@@H](C)O)C(=O)NCC(=O)O)CC3 [Compound 16]
pIC50 (HCT116; 96 h): 8.77 | remaining at 4 h, 100 µM [1]: 3.4% | remaining at 24 h, 100 µM [1]: 2% | remaining at 4 h, 100 µM (Plasma stability studies): 116% | remaining at 24 h, 100 µM (Plasma stability studies): 106%

CC[C@@]1(O)C(=O)OCc2c1cc1n(c2=O)Cc2c-1nc1cc(F)c(C)c3c1c2[C@@H](NC(=O)O[C@H]1Cc2ccccc2C[C@@H]1SSC[C@H](NC(=O)[C@H](Cc1c[nH]c2ccccc12)NC(=O)[C@H](CC(C)C)NC(=O)[C@H](CC(C)C)NC(=O)[C@H](CC(=O)O)NC(=O)[C@H](CC(C)C)NC(=O)[C@H](CC(C)C)NC(=O)[C@H](CC(C)C)NC(=O)[C@@H](NC(=O)[C@H](CC(=O)O)NC(=O)[C@@H](NC(=O)[C@@H]1CCCN1C(=O)[C@H](Cc1ccccc1)NC(=O)[C@H](CC(C)C)NC(=O)[C@H](CC(C)C)NC(=O)[C@H](CC(=O)O)NC(=O)[C@H](CC(C)C)NC(=O)[C@H](Cc1ccc(O)cc1)NC(=O)[C@H](C)NC(=O)[C@H](CCCNC(=N)N)NC(=O)[C@H](Cc1c[nH]c2ccccc12)NC(=O)[C@@H]1CCCN1C(=O)[C@H](CC(N)=O)NC(=O)[C@H](CCC(N)=O)NC(=O)[C@H](CC(=O)O)NC(=O)[C@H](CC(=O)O)NC(=O)[C@H](C)N)[C@@H](C)O)[C@@H](C)O)C(=O)NCC(=O)O)CC3 [Compound 19]
pIC50 (HCT116; 96 h): 8.74
